This note sets out measurements from publication PMC5376645, “Long-acting protein drugs for the treatment of ocular diseases” (Nature Communications, 2017).

The target of assay [1] is T1, human VEGF-A165 (VEGF homodimer with each monomer having 165 amino acid residues) (Homo sapiens, UniProt P15692-4, strain, biotin (site not stated; named for Supplementary Table 2 only)).
T1 construct: also called hVEGF-A165; hVEGF; source: bought: Peprotech (catalogue number AF-100-20)
Briefly: SPR; Biacore as per the manufacturer's protocol; kinetic rate constants and affinity of the Fab constructs for biotinylated hVEGF-A165. Particulars: both partners purified.

Assay [2] deals with T1, human VEGF-A165 (VEGF homodimer with …). In words: inhibition of binding of hVEGF-A165 to hVEGFR2-Fc (luminescence read-out); antibody titrated (pM); binding signal in relative luminescence units; triplicates. Particulars: both partners purified.

T1 sequence (P15692 whole entry, looked up, change not shown): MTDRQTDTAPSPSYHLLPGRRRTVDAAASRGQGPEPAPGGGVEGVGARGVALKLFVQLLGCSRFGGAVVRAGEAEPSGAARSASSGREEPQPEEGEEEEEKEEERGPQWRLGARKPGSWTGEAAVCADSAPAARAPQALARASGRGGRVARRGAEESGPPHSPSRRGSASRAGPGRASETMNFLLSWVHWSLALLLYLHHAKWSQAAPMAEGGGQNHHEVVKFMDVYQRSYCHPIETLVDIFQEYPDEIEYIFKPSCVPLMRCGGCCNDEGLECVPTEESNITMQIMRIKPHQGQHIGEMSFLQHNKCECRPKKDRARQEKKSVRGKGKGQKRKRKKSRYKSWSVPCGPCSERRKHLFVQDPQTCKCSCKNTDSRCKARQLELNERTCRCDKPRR

B1: NVS0, the Fab version of brolucizumab (Fab, V domains shown)
VH: EVQLVESGGGLVQPGGSLRLSCTASGFSLTDYYYMTWVRQAPGKGLEWVGFIDPDDDPYYATWAKGRFTISRDNSKNTLYLQMNSLRAEDTAVYYCAGGDHNSGWGLDIWGQGTLVTVSS
VL: EIVMTQSPSTLSASVGDRVIITCQASEIIHSWLAWYQQKPGKAPKLLIYLASTLASGVPSRFSGSGSGAEFTLTISSLQPDDFATYYCQNVYLASTNGANFGQGTKLTVL
notes: as the Fab part of the heavy chain of Dm4 (LAVA1), without the GSGGG linker and the LINK domain; as the light chain of Dm4 (LAVA1); Made by converting the anti-VEGF scFv brolucizumab to a Fab format; also called untagged anti-VEGF Fab
In the case of B1, in assay [1], the affinity, expressed as Kd, was 0.0142 nM; the dissociation rate constant (koff) was 7.87e-05 s⁻¹; the kon came to 5.51e+06 M⁻¹ s⁻¹. In addition, the IC50 in assay [2] stood at 0.263 nM.

B2: LAVA3, protease-resistant variant of LAVA1 (Fab, V domains shown)
VH: B1 VH
VL: B1 VL
notes: as the Fab part of the heavy chain of Dm4 (LAVA1); linker; TSG6, human, LINK domain (HABP), with amino acid substitutions around the observed proteolytic sites; as the light chain of Dm4 (LAVA1); The substitutions are in Supplementary Data 2
In assay [1], B2 showed a Kd of 0.000161 nM, an off-rate constant (koff) of 1.19e-05 s⁻¹ and an association rate constant (kon) of 7.39e+07 M⁻¹ s⁻¹. The IC50 in assay [2] turned out to be 0.301 nM.

B3: LAVA45, variant of LAVA1 with an additional disulfide bond in the LINK domain (Fab, V domains shown)
VH: B1 VH
VL: B1 VL
notes: as the Fab part of the heavy chain of Dm4 (LAVA1); linker; TSG6, human, LINK domain (HABP), with cysteine residues introduced for an additional disulfide bond and substitutions at and around the observed digestion sites; as the light chain of Dm4 (LAVA1); The substitutions are in Supplementary Data 2
In assay [1], B3 gave a dissociation constant Kd of 0.00307 nM, a koff of 7.21e-05 s⁻¹ and an on-rate constant (kon) of 2.35e+07 M⁻¹ s⁻¹.

B4: LAVA24, non-glycosylated variant of LAVA1 (Fab, V domains shown)
VH: B1 VH
VL: B1 VL
notes: as the Fab part of the heavy chain of Dm4 (LAVA1); linker; TSG6, human, LINK domain (HABP), the N-linked glycosylation site deleted by substitution of the asparagine residue; as the light chain of Dm4 (LAVA1); The substitution is in Supplementary Data 2
In assay [1], B4 came in with a dissociation constant Kd of 0.00882 nM, an off-rate (koff) of 0.000198 s⁻¹ and a kon of 2.25e+07 M⁻¹ s⁻¹.

B5: LAVA1 (NVS24): NVS0 Fab with the LINK domain of human TSG6 fused to the C terminus of the heavy chain (Fab, V domains shown)
VH: B1 VH
VL: B1 VL
notes: Fab heavy chain of NVS0 (from brolucizumab); linker; TSG6 (TNF-stimulated gene 6 protein), human, LINK domain; Fab light chain of NVS0 (from brolucizumab); The LINK domain has a natural N-linked glycosylation site
In assay [1], B5 showed a dissociation constant (Kd) of 0.000176 nM, a koff of 1.01e-05 s⁻¹ and an association rate constant (kon) of 5.75e+07 M⁻¹ s⁻¹. Further, in assay [2], the IC50 was found to be 0.28 nM.

B6: brolucizumab, an anti-VEGF scFv (scFv, V domains shown)
VH: B1 VH
VL: B1 VL
notes: NVS0 is the Fab version of this scFv
As for B6, the concentration for half-maximal inhibition (IC50) in assay [2] was determined as 0.248 nM.

B7: LAVA2, protease-resistant variant of LAVA1 (Fab, V domains shown)
VH: B1 VH
VL: B1 VL
notes: as for B2
In assay [1], B7 displayed an equilibrium dissociation constant (Kd) of 0.00453 nM, a dissociation rate constant (koff) of 0.000185 s⁻¹ and a kon of 4.1e+07 M⁻¹ s⁻¹. Also, the 50% inhibitory concentration (IC50) in assay [2] is 0.207 nM.

B8: LAVA25, non-glycosylated variant of LAVA1 (Fab, V domains shown)
VH: B1 VH
VL: B1 VL
notes: as for B4
Take B8: in assay [1], the Kd is 0.0115 nM, the off-rate constant (koff) amounted to 0.000213 s⁻¹ and the kon amounted to 1.86e+07 M⁻¹ s⁻¹.

B9: LAVA46, variant of LAVA1 with an additional disulfide bond in the LINK domain (Fab, V domains shown)
VH: B1 VH
VL: B1 VL
notes: as for B3
In assay [1], B9 showed a dissociation constant (Kd) of 0.00413 nM, an off-rate (koff) of 0.000257 s⁻¹ and an on-rate constant (kon) of 6.23e+07 M⁻¹ s⁻¹.
